Assay results as given in patent US20240210419A1 (UNIVERSITY OF VIRGINIA PATENT FOUNDATION, published 2024).

B1: modified H5-IgG1 antibody (antibody, V domains shown)
VH: EVQLLESGGGLVQPGGSLRLSCAASGFTFSSYAMSWVRQAPGKGLEWVSDIYDGGGTNYADSVKGRFTTSRDNSKNTLYLQMNSLRAEDTAVYYCAKTADNFDYWGQGTLVTVSS
VL: DIQMTQSPSSLSASVGDRVTITCRASQSISSYLNWYQQKPGKAPKLLIYAASTLQSGVPSRFSGSGSGTDFTLTISSLQPEDFATYYCQQANSAPTTFGQGTKVEIKR
notes: Full length IgG1 format; Made in a plug-and-(dis)play (PnP) hybridoma cell line; also called modified IgG1 format of H5
B2: unmodified H5 antibody (H5-scFv) produced in E. coli (scFv, part only; not given: scFv linker, domain order, tags, V domains shown, not shown: another chain or arm of the molecule; small tags and cut ends)
VH: B1 VH
VL: DIQMTQSPSSLSASVGDRVTITCRASQSISSYLNWYQQKPGKAPKLLIYAASTLQSGVPSRFSGSGSGTDFTLTISSLQPEDFATYYCQQANSAPTTFGQGTKVEIK

Tests used:
[1] = target: FN-9*-10 recombinant fibronectin fragment (normal form mimic) (UniProt P02751); experiment: ELISA, fibronectin fragment tethered to maleimide activated plate, colorimetric detection
[2] = target: T1, FN-4G-10 recombinant fibronectin fragment (diseased form mimic) (UniProt P02751 1448-1537; P02751 1538-1631, limits assumed); experiment: as above
T1 construct: domain: 9th type III repeat;domain: 10th type III repeat; also called FnIII9-4G-10; FnIII-4G-10
Excerpt: (§1) In vitro ELISA binding assays were employed to determine the efficacy of binding of H5 antibodies and derivatives thereof to the diseased form (dise) and the healthy form (norm) of fibronectin. Maleimide activated ELISA plates were used to tether the recombinant fibronectin fragments, which were named as FN-4G-10 and FN-9*-10, and they mimicked diseased and normal form of FN, respectively. Both formats of H5 were used in different molar concentrations starting with 10^-5M and ending with 10-11M. Bound antibodies were detected by colorimetric method.
(§2) The data represents the combination of two independent experiments, one comparing E. coli (eH5) versus N. benthamiana (nicoH5) produced H5-scFv and the second comparing H5-scFv (scFv) to H5-IgG1 (H5-IgG). […] Further, it discriminated the two fragments showing higher affinity for FN-4G-10 (diseased form) compared to FN-9*-10 (Healthy form).

[3] = target: FN-9*-10 recombinant fibronectin fragment (normal form mimic) (UniProt P02751); experiment: ELISA, fibronectin fragment tethered on maleimide-activated plate, colorimetric detection (absorbance)
[4] = target: T1, FN-4G-10 recombinant fibronectin …; experiment: as above
Excerpt: as §1, §2

[5] = target: FN-4G-10 recombinant fibronectin fragment (diseased form mimic) (UniProt P02751); experiment: as above
Chain of FN-4G-10 recombinant fibronectin fragment (diseased form mimic) (UniProt P02751) (P02751 other isoform, or with tags, fused parts or gaps limits assumed): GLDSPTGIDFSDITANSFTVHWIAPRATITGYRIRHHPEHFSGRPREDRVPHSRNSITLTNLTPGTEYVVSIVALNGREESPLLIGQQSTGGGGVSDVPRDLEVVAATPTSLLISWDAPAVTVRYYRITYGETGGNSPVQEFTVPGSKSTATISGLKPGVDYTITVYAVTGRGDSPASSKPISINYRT

Chain of FN-9*-10 recombinant fibronectin fragment (normal form mimic) (P02751 1448-1631): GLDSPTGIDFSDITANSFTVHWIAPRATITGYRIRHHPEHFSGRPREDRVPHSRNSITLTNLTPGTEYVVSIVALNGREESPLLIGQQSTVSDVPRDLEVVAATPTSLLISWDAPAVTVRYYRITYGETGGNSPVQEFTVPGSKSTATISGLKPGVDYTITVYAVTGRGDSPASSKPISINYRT
T1 sequence (P02751 other isoform, or with tags, fused parts or gaps limits assumed): as the sequence (P02751 other isoform, or with tags, fused parts or gaps limits assumed) above

Row | Binder | fold higher binding than the H5-scFv format at equimolar concentration [1] [fold] | fold higher binding than the H5-scFv format at equimolar concentration [2] [fold] | EC50 (read off the curve) [3] [nM] | EC50 (read off the curve) [4] [nM] | EC50 (read off the curve) [5] [nM]
1 | B1 | > 50 | ≥ 50 | 10 | ~4 | –
2 | B2 | – | – | 100 | – | 100
